# Legend:
# HeLa Kyoto [1] = assay: solubility change mitosis vs G1/S (difference of NP-40 vs SDS log2 ratios) (log2 ratio difference); higher = more soluble in mitosis
# HeLa Kyoto [2] = assay: melting temperature (median over replicates), in situ; higher = more thermally stable
# HeLa Kyoto [3] = assay: thermal stability score vs G1/S (z-score of summed log2 fold changes over temperatures); higher = more thermally stable than in G1/S
# [4] = cell cycle stage: early G1 (4.5 h after nocodazole release)
# 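Throughout, for melting temperature (median over replicates), in situ: HeLa Kyoto cells synchronized by double thymidine or nocodazole block, proteins quantified by TMT10plex mass spectrometry, three independent biological replicates.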
# 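Throughout, for solubility change mitosis vs G1/S (difference of NP-40 vs SDS log2 ratios): synchronized HeLa Kyoto cells (double thymidine block for G1/S, nocodazole release for mitosis), protein amounts in NP-40 versus SDS lysates quantified by mass spectrometry, three biological replicates.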
# 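Throughout, for thermal stability score vs G1/S (z-score of summed log2 fold changes over temperatures): synchronized HeLa Kyoto cells, proteins quantified by TMT10plex mass spectrometry, three biological replicates, mitosis taken 0.5 h after nocodazole release, G1/S directly after double thymidine block.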
# SBF2, sequence (chain, as listed by the source): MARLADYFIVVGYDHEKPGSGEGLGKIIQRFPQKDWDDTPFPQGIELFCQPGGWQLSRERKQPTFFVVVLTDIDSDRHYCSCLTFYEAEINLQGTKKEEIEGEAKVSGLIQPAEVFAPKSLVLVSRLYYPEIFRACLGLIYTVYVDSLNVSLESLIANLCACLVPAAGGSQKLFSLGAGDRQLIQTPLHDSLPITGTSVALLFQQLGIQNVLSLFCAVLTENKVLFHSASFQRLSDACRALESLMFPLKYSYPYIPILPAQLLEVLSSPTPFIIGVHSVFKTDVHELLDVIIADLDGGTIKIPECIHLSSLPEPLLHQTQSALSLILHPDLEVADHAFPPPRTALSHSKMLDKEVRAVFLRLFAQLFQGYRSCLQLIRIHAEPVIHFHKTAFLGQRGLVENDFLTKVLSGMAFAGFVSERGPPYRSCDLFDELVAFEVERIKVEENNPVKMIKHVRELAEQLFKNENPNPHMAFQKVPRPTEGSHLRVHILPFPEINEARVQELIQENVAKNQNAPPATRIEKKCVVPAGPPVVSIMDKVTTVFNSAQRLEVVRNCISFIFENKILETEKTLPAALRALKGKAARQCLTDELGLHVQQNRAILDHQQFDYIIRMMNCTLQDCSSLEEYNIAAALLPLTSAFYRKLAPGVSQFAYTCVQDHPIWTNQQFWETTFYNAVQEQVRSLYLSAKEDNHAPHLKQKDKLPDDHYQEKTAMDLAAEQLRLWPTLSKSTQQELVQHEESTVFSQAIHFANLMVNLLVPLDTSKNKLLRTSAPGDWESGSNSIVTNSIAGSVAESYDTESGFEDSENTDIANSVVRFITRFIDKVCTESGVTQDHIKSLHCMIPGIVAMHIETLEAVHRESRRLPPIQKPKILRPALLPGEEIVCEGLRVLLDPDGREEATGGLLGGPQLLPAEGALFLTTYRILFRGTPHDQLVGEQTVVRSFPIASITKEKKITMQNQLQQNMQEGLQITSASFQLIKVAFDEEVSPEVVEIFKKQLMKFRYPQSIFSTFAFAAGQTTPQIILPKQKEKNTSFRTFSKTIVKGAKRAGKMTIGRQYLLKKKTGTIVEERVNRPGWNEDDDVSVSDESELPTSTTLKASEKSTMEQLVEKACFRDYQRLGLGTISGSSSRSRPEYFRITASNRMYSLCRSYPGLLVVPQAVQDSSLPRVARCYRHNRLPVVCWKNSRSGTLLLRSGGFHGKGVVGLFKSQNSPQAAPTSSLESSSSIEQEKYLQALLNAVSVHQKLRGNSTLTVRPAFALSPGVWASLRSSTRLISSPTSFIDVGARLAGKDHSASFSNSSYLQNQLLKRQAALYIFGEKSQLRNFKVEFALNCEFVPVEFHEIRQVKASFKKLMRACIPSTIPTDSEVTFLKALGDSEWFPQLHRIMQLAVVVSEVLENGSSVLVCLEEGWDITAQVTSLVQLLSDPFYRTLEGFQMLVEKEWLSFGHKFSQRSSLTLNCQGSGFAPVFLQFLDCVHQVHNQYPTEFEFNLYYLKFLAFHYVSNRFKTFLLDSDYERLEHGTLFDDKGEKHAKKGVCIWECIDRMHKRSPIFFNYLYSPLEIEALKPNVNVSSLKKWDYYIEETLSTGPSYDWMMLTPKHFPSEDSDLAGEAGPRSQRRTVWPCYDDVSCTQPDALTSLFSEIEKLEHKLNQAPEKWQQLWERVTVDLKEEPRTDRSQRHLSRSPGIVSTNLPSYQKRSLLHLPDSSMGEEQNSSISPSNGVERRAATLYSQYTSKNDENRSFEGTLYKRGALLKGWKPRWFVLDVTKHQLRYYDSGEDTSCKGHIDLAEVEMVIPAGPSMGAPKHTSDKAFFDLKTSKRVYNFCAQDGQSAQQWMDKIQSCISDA
Substance,solubility change mitosis (log2) (HeLa Kyoto [1]),other results
ACTR3,-0.0203,–
ARPC2,-0.0639,–
BPTF,-0.0311,–
BTF3,0.172,–
CDK2,-0.211,–
CTR9,-0.0445,–
DNPEP,-0.0236,–
DTX3L,0.0969,–
EEF2,-0.164,–
FAM175B,-0.114,–
FSCN1,-0.135,–
HIST1H4A,0.331,–
JMJD6,-0.18,–
LDHA,-0.0758,–
MFTSEKGVVEEWLSEFKTLPETSLPNYATNLKDKSSLVSSLYKVIQEPQSELLEPVCHQLFEFYRSGEEQLLQFTLQFLPELIWCYLAVSASRNVHSSGCIEALLLGVYNLEIVDKQGHTKVLSFTIPSLSKPSVYHEPSSIGSMALTESALSQHGLSKVVYSGPHPQREMLTAQNRFEVLTFLLLCYNAALTYMPSVSLQSLCQICSRICVCGYPRQHVRKYKGISSRIPVSSGFMVQMLTGIYFAFYNGEWDLAQKALDDIIYRAQLELYPEPLLVANAIKASLPHGPMKSNKEGTRCIQVEITPTSSRISRNAVTSMSIRGHRWKRHGNTELTGQEELMEISEVDEGFYSRAASSTSQSGLSNSSHNCSNKPSIGKNHRRSGGSKTGGKEKETTGESCKDHFARKQTQRAQSENLELLSLKRLTLTTSQSLPKPSSHGLAKTAATVFSKSFEQVSGVTVPHNPSSAVGCGAGTDANRFSACSLQEEKLIYVSERTELPMKHQSGQQRPPSISITLSTD [FAM126A],–,melting temperature (HeLa Kyoto [2]; cell cycle stage: mitosis): 50.9 °C; thermal stability score (HeLa Kyoto [3]; [4]): 0.141; thermal stability score (HeLa Kyoto [3]; cell cycle stage: mitosis): 0.0377
MLCRLGGRWLRPLPALQLWARDLPLAPVPTSGAKRPTLPVWAVAPVSAVHANGWYEALAASSPVRVAEEVLLGVHAATGLPWWGSILLSTVALRGAVTLPLAAYQHYILAKVENLQPEIKTIARHLNQEVAVRANQLGWSKRDARLTYLKNMRRLISELYVRDNCHPFKATVLVWIQLPMWIFMSFALRNLSTGAAHSEGFSVQEQLATGGILWFPDLTAPDSTWILPISVGVINLLIVEICALQKIGMSRFQTYITYFVRAMSVLMIPIAATVPSSIVLYWLCSSFVGLSQNLLLRSPGFRQLCRIPSTKSDSETPYKDIFAAFNTKFISRK [COX18],–,melting temperature (HeLa Kyoto [2]; cell cycle stage: mitosis): 57.1 °C; thermal stability score (HeLa Kyoto [3]; [4]): 0.867; thermal stability score (HeLa Kyoto [3]; cell cycle stage: mitosis): -0.575
MMKLKSNQTRTYDGDGYKKRAACLCFRSESEEEVLLVSSSRHPDRWIVPGGGMEPEEEPSVAAVREVCEEAGVKGTLGRLVGIFENQERKHRTYVYVLIVTEVLEDWEDSVNIGRKREWFKIEDAIKVLQYHKPVQASYFETLRQGYSANNGTPVVATTYSVSAQSSMSGIR [NUDT3],–,melting temperature (HeLa Kyoto [2]; cell cycle stage: G1/S): 53.4 °C; melting temperature (HeLa Kyoto [2]; cell cycle stage: mitosis): 54.7 °C; thermal stability score (HeLa Kyoto [3]; [4]): -1.86; thermal stability score (HeLa Kyoto [3]; cell cycle stage: mitosis): -1.36
MPGRSCVALVLLAAAVSCAVAQHAPPWTEDCRKSTYPPSGPTYRGAVPWYTINLDLPPYKRWHELMLDKAPVLKVIVNSLKNMINTFVPSGKIMQVVDEKLPGLLGNFPGPFEEEMKGIAAVTDIPLGEIISFNIFYELFTICTSIVAEDKKGHLIHGRNMDFGVFLGWNINNDTWVITEQLKPLTVNLDFQRNNKTVFKASSFAGYVGMLTGFKPGLFSLTLNERFSINGGYLGILEWILGKKDVMWIGFLTRTVLENSTSYEEAKNLLTKTKILAPAYFILGGNQSGEGCVITRDRKESLDVYELDAKQGRWYVVQTNYDRWKHPFFLDDRRTPAKMCLNRTSQENISFETMYDVLSTKPVLNKLTVYTTLIDVTKGQFETYLRDCPDPCIGW [ASAH1],–,melting temperature (HeLa Kyoto [2]; cell cycle stage: G1/S): 55.8 °C; melting temperature (HeLa Kyoto [2]; cell cycle stage: mitosis): 55.9 °C; thermal stability score (HeLa Kyoto [3]; [4]): -1.25; thermal stability score (HeLa Kyoto [3]; cell cycle stage: mitosis): -2.17
MPKNKKRNTPHRGSSAGGGGSGAAAATAATAGGQHRNVQPFSDEDASIETMSHCSGYSDPSSFAEDGPEVLDEEGTQEDLEYKLKGLIDLTLDKSAKTRQAALEGIKNALASKMLYEFILERRMTLTDSIERCLKKGKSDEQRAAAALASVLCIQLGPGIESEEILKTLGPILKKIICDGSASMQARQTCATCFGVCCFIATDDITELYSTLECLENIFTKSYLKEKDTTVICSTPNTVLHISSLLAWTLLLTICPINEVKKKLEMHFHKLPSLLSCDDVNMRIAAGESLALLFELARGIESDFFYEDMESLTQMLRALATDGNKHRAKVDKRKQRSVFRDVLRAVEERDFPTETIKFGPERMYIDCWVKKHTYDTFKEVLGSGMQYHLQSNEFLRNVFELGPPVMLDAATLKTMKISRFERHLYNSAAFKARTKARSKCRDKRADVGEFF [IFRD1],–,melting temperature (HeLa Kyoto [2]; cell cycle stage: G1/S): 56.4 °C; thermal stability score (HeLa Kyoto [3]; [4]): 0.75; thermal stability score (HeLa Kyoto [3]; cell cycle stage: mitosis): 1.11
MQPPGPPPAYAPTNGDFTFVSSADAEDLSGSIASPDVKLNLGGDFIKESTATTFLRQRGYGWLLEVEDDDPEDNKPLLEELDIDLKDIYYKIRCVLMPMPSLGFNRQVVRDNPDFWGPLAVVLFFSMISLYGQFRVVSWIITIWIFGSLTIFLLARVLGGEVAYGQVLGVIGYSLLPLIVIAPVLLVVGSFEVVSTLIKLFGVFWAAYSAASLLVGEEFKTKKPLLIYPIFLLYIYFLSLYTGV [YIPF4],–,melting temperature (HeLa Kyoto [2]; cell cycle stage: G1/S): 57.7 °C; melting temperature (HeLa Kyoto [2]; cell cycle stage: mitosis): 56.1 °C; thermal stability score (HeLa Kyoto [3]; [4]): -0.481; thermal stability score (HeLa Kyoto [3]; cell cycle stage: mitosis): -2.96
MREYKVVVLGSGGVGKSALTVQFVTGSFIEKYDPTIEDFYRKEIEVDSSPSVLEILDTAGTEQFASMRDLYIKNGQGFILVYSLVNQQSFQDIKPMRDQIIRVKRYERVPMILVGNKVDLEGEREVSYGEGKALAEEWSCPFMETSAKNKASVDELFAEIVRQMNYAAQPNGDEGCCSACVIL [RAP2B],–,melting temperature (HeLa Kyoto [2]; cell cycle stage: G1/S): 59.2 °C; melting temperature (HeLa Kyoto [2]; cell cycle stage: mitosis): 60.7 °C; thermal stability score (HeLa Kyoto [3]; [4]): -0.0087; thermal stability score (HeLa Kyoto [3]; cell cycle stage: mitosis): 0.542
MRPL1,-0.101,–
MRPL2,0.0937,–

Substance,solubility change mitosis (log2) (HeLa Kyoto [1]),other results
MRPL9,-0.0572,–
MRPL13,-0.0691,–
MRPL20,-0.0687,–
MRPL28,0.00818,–
MRPL30,0.00936,–
MRPL32,0.35,–
MRPL33,-0.0245,–
MRPL41,0.232,–
MRPL43,0.445,–
MRPS6,0.0185,–
MRPS10,-0.0122,–
MRPS11,-0.0467,–
MRPS21,0.0482,–
MRPS22,-0.0527,–
MRPS23,0.188,–
MRPS24,-0.0858,–
MRPS31,-0.0986,–
MRPS35,0.0565,–
MTAEETVNVKEVEIIKLILDFLNSKKLHISMLALEKESGVINGLFSDDMLFLRQLILDGQWDEVLQFIQPLECMEKFDKKRFRYIILKQKFLEALCVNNAMSAEDEPQHLEFTMQEAVQCLHALEEYCPSKDDYSKLCLLLTLPRLTNHAEFKDWNPSTARVHCFEEACVMVAEFIPADRKLSEAGFKASNNRLFQLVMKGLLYECCVEFCQSKATGEEITESEVLLGIDLLCGNGCDDLDLSLLSWLQNLPSSVFSCAFEQKMLNIHVDKLLKPTKAAYADLLTPLISKLSPYPSSPMRRPQSADAYMTRSLNPALDGLTCGLTSHDKRISDLGNKTSPMSHSFANFHYPGVQNLSRSLMLENTECHSIYEESPERDTPVDAQRPIGSEILGQSSVSEKEPANGAQNPGPAKQEKNELRDSTEQFQEYYRQRLRYQQHLEQKEQQRQIYQQMLLEGGVNQEDGPDQQQNLTEQFLNRSIQKLGELNIGMDGLGNEVSALNQQCNGSKGNGSNGSSVTSFTTPPQDSSQRLTHDASNIHTSTPRNPGSTNHIPFLEESPCGSQISSEHSVIKPPLGDSPGSLSRSKGEEDDKSKKQFVCINILEDTQAVRAVAFHPAGGLYAVGSNSKTLRVCAYPDVIDPSAHETPKQPVVRFKRNKHHKGSIYCVAWSPCGQLLATGSNDKYVKVLPFNAETCNATGPDLEFSMHDGTIRDLAFMEGPESGGAILISAGAGDCNIYTTDCQRGQGLHALSGHTGHILALYTWSGWMIASGSQDKTVRFWDLRVPSCVRVVGTTFHGTGSAVASVAVDPSGRLLATGQEDSSCMLYDIRGGRMVQSYHPHSSDVRSVRFSPGAHYLLTGSYDMKIKVTDLQGDLTKQLPIMVVGEHKDKVIQCRWHTQDLSFLSSSADRTVTLWTYNG [WDR47],–,melting temperature (HeLa Kyoto [2]; cell cycle stage: G1/S): 54.4 °C; melting temperature (HeLa Kyoto [2]; cell cycle stage: mitosis): 52.6 °C; thermal stability score (HeLa Kyoto [3]; [4]): -2.39; thermal stability score (HeLa Kyoto [3]; cell cycle stage: mitosis): -1.92
MTMAAAAVVARGAGARAATAAALRGGCGTAARGRPCAGPARPLCTAPGTAPDMKRYLWERYREAKRSTEELVPSIMSNLLNPDAIFSNNEMSLSDIEIYGFDYDYTLVFYSKHLHTLIFNAARDLLINEHRYPAEIRKYEYDPNFAIRGLHYDVQRAVLMKIDAFHYIQLGTVYRGLSVVPDEEVIEMYEGSHVPLEQMSDFYGKSSHGNTMKQFMDIFSLPEMTLLSCVNEYFLKNNIDYEPVHLYKDVKDSIRDVHIKGIMYRAIEADIEKYICYAEQTRAVLAKLADHGKKMFLITNSPSSFVDKGMSYIVGKDWRDLFDVVIVQAEKPNFFNDKRRPFRKMNEKGVLLWDKIHKLQKGQIYKQGNLYEFLKLTGWRGSRVLYFGDHIYSDLADLTLKHGWRTGAIIPELRSELKIMNTEQYIQTMTWLQTLTGLLEQMQVHRDAESQLVLQEWKKERKEMREMTKSFFNAQFGSLFRTDQNPTYFLRRLSRFADIYMASLSCLLNYDVSHTFYPRRTPLQHELPAWSERPPTFGTPLLQEAQAK [NT5DC3],–,melting temperature (HeLa Kyoto [2]; cell cycle stage: G1/S): 53.4 °C; melting temperature (HeLa Kyoto [2]; cell cycle stage: mitosis): 54 °C; thermal stability score (HeLa Kyoto [3]; [4]): -1.05; thermal stability score (HeLa Kyoto [3]; cell cycle stage: mitosis): -1.22
NAA40,0.145,–
PRKACB,-0.134,–
PSEN1,0.045,–

Substance,solubility change mitosis (log2) (HeLa Kyoto [1]),other results
RPL3,0.667,–
RPL5,0.442,–
RPL7A,0.753,–
RPL9,0.502,–
RPL12,0.659,–
RPL13A,0.619,–
RPL18,0.797,–
RPL19,0.873,–
RPL21,0.856,–
RPL22,0.576,–
RPL26L1,0.994,–
RPL35,1.27,–
RPS2,0.389,–
RPS8,0.735,–
RPS9,0.434,–
RPS13,0.484,–
RPS15,0.616,–
RPS15A,0.424,–
RPS16,0.511,–
RPS18,0.385,–
RPS28,0.73,–
SBF2,–,melting temperature (HeLa Kyoto [2]; cell cycle stage: mitosis): 52.3 °C; thermal stability score (HeLa Kyoto [3]; [4]): -0.139; thermal stability score (HeLa Kyoto [3]; cell cycle stage: mitosis): 0.0344
TIMP1,–,melting temperature (HeLa Kyoto [2]; cell cycle stage: G1/S): 54.8 °C; melting temperature (HeLa Kyoto [2]; cell cycle stage: mitosis): 54.5 °C; thermal stability score (HeLa Kyoto [3]; [4]): 0.849; thermal stability score (HeLa Kyoto [3]; cell cycle stage: mitosis): -1.24

# Source: the supplement of paper PMC5998384
